# Key:
# Conditions in all cases: modification not given
# [1] = biological target: NaV1.2 (Rattus norvegicus), P04775
# [2] = biological target: NaV1.4 (Rattus norvegicus), P15390
# [3] = biological target: NaV1.7 (Rattus norvegicus), O08562
# NaV1.2 (Rattus norvegicus), P04775, sequence (P04775 whole entry): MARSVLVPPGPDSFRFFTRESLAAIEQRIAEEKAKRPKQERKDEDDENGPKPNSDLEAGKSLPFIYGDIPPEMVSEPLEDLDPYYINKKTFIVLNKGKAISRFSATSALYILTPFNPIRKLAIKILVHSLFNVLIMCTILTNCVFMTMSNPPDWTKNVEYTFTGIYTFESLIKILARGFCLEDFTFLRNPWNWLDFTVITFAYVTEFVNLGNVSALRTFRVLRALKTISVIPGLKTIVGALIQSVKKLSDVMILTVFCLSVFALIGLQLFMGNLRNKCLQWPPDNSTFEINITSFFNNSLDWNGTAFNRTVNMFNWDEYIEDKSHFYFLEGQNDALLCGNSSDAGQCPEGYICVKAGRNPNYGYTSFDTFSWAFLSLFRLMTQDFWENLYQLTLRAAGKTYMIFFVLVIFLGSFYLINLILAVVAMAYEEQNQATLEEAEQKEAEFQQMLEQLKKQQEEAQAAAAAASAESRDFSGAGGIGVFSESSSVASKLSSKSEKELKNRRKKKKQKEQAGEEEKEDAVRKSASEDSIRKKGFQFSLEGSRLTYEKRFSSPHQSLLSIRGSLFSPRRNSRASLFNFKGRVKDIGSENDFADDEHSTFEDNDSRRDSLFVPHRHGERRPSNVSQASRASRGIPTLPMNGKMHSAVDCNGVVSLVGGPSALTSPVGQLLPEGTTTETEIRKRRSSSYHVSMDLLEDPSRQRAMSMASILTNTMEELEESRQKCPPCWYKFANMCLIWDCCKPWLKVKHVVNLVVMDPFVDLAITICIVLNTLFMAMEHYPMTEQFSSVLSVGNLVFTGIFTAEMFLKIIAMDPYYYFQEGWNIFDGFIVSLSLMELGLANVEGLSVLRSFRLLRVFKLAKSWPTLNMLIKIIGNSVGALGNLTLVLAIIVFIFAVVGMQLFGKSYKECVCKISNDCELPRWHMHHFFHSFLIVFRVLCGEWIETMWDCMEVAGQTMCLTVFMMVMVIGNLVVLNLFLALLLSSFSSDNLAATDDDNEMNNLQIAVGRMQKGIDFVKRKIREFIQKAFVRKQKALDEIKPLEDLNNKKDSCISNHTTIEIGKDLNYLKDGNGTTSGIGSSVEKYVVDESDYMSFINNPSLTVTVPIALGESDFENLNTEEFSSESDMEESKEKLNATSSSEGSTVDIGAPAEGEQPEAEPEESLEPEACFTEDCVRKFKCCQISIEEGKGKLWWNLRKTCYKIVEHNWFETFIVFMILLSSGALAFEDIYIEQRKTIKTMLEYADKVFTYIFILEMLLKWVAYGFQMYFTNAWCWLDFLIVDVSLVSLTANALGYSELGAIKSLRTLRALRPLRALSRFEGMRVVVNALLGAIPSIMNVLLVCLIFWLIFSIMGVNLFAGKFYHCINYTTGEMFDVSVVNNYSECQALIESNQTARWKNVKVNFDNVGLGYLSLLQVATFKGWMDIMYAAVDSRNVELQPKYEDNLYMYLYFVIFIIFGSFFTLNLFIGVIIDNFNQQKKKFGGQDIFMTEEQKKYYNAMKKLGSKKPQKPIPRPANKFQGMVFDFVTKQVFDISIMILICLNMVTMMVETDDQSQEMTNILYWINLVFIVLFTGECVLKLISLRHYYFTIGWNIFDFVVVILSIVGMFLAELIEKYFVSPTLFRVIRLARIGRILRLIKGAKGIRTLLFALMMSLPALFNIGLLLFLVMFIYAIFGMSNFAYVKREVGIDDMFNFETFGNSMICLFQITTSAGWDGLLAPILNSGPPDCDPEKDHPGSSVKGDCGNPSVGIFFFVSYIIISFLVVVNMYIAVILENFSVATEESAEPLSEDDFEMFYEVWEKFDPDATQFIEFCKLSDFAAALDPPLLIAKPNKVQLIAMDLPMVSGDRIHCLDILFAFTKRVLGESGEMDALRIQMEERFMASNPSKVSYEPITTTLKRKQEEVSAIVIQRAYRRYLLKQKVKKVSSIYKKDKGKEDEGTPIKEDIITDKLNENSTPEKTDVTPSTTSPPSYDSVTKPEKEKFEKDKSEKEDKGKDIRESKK
# NaV1.4 (Rattus norvegicus), P15390, sequence (P15390 whole entry): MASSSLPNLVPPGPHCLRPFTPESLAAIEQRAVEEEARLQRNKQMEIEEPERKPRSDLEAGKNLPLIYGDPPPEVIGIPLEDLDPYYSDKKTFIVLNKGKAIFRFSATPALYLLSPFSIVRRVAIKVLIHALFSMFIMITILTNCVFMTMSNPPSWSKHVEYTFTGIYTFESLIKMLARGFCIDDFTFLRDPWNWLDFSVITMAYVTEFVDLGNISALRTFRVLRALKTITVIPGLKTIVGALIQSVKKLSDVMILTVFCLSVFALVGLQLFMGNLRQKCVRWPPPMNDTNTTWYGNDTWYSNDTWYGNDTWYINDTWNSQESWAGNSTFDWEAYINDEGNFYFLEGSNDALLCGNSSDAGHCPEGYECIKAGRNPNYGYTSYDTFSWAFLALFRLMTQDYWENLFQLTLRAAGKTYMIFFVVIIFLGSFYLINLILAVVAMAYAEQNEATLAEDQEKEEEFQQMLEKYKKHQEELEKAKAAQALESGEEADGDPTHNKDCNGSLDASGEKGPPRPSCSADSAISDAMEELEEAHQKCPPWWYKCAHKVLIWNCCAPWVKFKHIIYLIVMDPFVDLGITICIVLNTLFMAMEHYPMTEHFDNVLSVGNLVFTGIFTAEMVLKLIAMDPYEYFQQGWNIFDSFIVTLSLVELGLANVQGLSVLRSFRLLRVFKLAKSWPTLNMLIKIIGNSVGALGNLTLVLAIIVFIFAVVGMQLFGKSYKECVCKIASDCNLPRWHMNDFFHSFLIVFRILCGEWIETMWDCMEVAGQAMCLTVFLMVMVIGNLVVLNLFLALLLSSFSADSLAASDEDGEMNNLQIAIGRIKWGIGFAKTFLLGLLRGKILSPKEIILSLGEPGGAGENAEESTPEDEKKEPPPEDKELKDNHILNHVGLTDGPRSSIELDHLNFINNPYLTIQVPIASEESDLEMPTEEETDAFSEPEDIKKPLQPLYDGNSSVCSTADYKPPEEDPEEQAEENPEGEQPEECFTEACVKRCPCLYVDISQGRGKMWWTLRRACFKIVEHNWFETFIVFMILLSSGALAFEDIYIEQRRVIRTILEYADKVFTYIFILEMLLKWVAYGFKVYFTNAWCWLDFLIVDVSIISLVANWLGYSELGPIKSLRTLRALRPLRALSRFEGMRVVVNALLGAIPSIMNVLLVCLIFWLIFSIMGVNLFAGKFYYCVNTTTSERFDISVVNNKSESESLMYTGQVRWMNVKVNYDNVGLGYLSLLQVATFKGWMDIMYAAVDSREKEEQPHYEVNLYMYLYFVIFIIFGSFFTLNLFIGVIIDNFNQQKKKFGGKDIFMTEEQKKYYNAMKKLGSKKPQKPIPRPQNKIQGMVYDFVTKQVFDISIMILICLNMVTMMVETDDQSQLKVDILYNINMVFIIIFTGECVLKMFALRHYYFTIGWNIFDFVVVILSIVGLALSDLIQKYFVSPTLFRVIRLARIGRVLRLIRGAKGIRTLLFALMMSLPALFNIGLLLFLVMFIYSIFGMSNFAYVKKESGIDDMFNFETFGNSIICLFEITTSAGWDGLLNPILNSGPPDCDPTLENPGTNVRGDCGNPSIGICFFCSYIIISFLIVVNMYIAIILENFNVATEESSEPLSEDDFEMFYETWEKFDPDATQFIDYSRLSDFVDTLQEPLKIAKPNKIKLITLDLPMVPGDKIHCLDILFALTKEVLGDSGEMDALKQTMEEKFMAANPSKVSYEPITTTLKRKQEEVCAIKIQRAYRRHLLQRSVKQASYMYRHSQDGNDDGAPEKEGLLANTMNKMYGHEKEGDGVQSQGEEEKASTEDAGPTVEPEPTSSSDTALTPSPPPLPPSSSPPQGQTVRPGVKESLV
binder,measurement,setting,value
"CCNCSSKWCRDHSRCC [μ-conotoxin KIIIA-P2, P0C195]",Kd,[1],230 nM
same,Kd,[2],830 nM
same,Kd,[3],1570 nM
